Laboratory results published in US7018791B1, “Binding complexes” (Institute of Cancer Research: Royal Cancer Hospital, priority 1997, dated 2006).

Target: T1, CCT
T1 construct: Take 20S mouse testis sucrose gradient fractions enriched in CCT; from tissue; host or cells: mouse testis, 20S sucrose gradient fractions
Assay: CCT binding to immobilised actin peptide array (Pepset pins, MAb 91a ELISA, absorbance 410 nm)
Settings: FIG. 9; mouse testis CCT
Description: Peptides of 15 amino acids in length were synthesised on polyethylene pins mounted on blocks according to the method of Maeji et al (Maeji N. J. et al, 1994) and commercially available under the trade name of Pepsets™ from Chiron Mimotopes. The sequence of the peptides were such that they defined the full length of the actin sequence with a 5 amino acid overlap between the sequential peptides, and selected peptides representing key known structures in actin (Table 2 annotated). The peptides are synthesised on polyethylene pins which are presented to be compatible with standard 96 well microtitre plates. The pins become the solid phase on which interactions with CCT complexes can be probed. The method is described below. • 1. Take Pepset pins from storage at −20(° C.) and equilibrate at room temperature. • 2. Wash pins with PBS for 10 minutes at room temperature on a shaking table. • 3. Incubate pins with blocking buffer (2% w/v BSA 0.1% Tween 20 in PBS) for 60 minutes at room temperature on a shaker. • 4. Wash pins with PBS for 10 minutes at room temperature on a shaker (times 1) • 5. […] Remove pins from the microtitre plate and read the microtitre plate at 410 nm on a Dynatech ELISA plate reader. • 16. Results are expressed as a 410 nm absorbance reading for each well corresponding to each unique substrate peptide from the actin molecule. […]

GGTTMYPGIADRMQK [substrate peptide 61] was tested, and the “CCT binding to immobilised substrate peptide (410 nm absorbance reading)” value was “new protein interaction site”.
